The data set in a line: label from the status in PepcDB records.
For the sequence “MGGKYSRGEERRPLGFPGFSALCCCQKTNREETPLGFCDIKARRSNLSFGREDPAYLDMAYFPDNDLHMAACAGDLPFVRLYFTLGKYEVNHRDRENRNAMHFACFYGHLELVIYLWRRGCEINVCDNHNITPLMKAVQSWEDKIVCFLLEHHANLHIKDSMGNTALHYAVYSGNLATAARLLQYGADIEERTKDNLTPLLLALRENRLKMAQFLVRMEASVHAVDSQRRNSLMYAVRCDSPVMVNLILQQGVDINLKDLFGWTALRYAIEGDRDVRTMLLELRKRNRAFQSSENSSIRLINKADAEVTSPTANEKVIEMQDPFTTNEASVEKTQTRRPAESELEVFSLEEEISYKETINNLQQNPGQRSAKTDAATENRSP”, the protein production result was “failed”.
For “MGYLIGGDIISSSPFTKIFYGSCRKIAVFIFSVLSLTIISGILMYFIEGETGGFTSPSLSIYWAIATLLTVGYGDVVLQTSVGRAMASFVSVLGLSIIVVPIFIVIAEIFGLLSRTFSW”, the protein production result is reported as “failed”.
The result for “MTQAASAAPQSAHSAKWKWAKRAFTAFFFIAVPVLLFMLVKNLDWQEVKKALASYKASTLAIAAVVAFASYATYCGFDILARYYTRHKLSIKQIVPVTFVCYAFNLNLSSWVGGIALRYRLYSRLGLEVSTITRILSLSLITNWLGYMLLAGFVFSMRFLELPEEWSIGTTTLQLIGFGLLAVCFSYLLACRFSKKRSWTIRDQEFNLPSMKQALMQASLGALNWALMAAVIYTLLPDKAFYPAILGVLLISSIAGVITHIPAGLGVLETVFITLLSHQFSKGSLLAALIGYRAIYFLLPLMIALVVYLVLEKRAKKMGEKNQRRMGQEANS” reads “failed”.
For “MPSIKIRENEPFEIAIRRFKRACEKAGVLSEVRRREYYEKPTEERKRKAAAAIKRHLKKLSRERFALQNLRKGRPQQLEHHHHHH”, the protein production entry is listed as “not failed”.
Take “MSSNECFKCGRSGHWARECPTGGGRGRGMRSRGRGGFTSDRGFQFVSSSLPDICYRCGESGHLAKDCDLQEDACYNCGRGGHIAKDCKEPKREREQCCYNCGKPGHLARDCDHADEQKCYSCGEFGHIQKDCTKVKCYRCGETGHVAINCSKTSEVNCYRCGESGHLARECTIEATA”: the protein production entry is listed as “not failed”.
Regarding “MTGGLLVTGGSGAIGGALCRIAARQHPVWVGYGAGAGRARALAAEITQAGGRAEPLALPLQDPAALETALAALPEPPASLALCAWPAPFVAPFGRQGEDLALQAAALAGCHALIATAWRLWWRRAGGGHVLAVLSAASEPPVARHMAAYVAQKAALRALLAAAAAELGPAGLRVSVVAPGFVETPMLGAFDPRLLERARADAGGRFLSPERVAQALVAALDAPPPAGTVQDIHLAEEVESDEKQTA”, the protein production result is recorded as “failed”.
The entry for “PKAPVTGYVRFLNERREQIRTRHPDLPFPEITKMLGAEWSKLQPAEKQRYLDEAEKEKQQYLKELWAYQQSEAYKVCTE” is “not failed”.
The entry for “MGFHDYIEETKNIFNRLYPDNKITDIDYEGPTIVVYTKDPELFAKRDDLVRQIAQEIRRRIAIRSDPSILLPEDQARESIEKIIPKEAGLEDIYFEPDTGEVIIELDEPSIVTARGTDYVQEIKSRTQWSPRIVRAPPMYSRTVKEVREFMREVKQERREFLHNLGVKLSGPPMVGETWVRLTALGGHSEVGRSATLVSTKNSKVLIDCGMMNVGPDADPWDAAPYLYVPEVQPLSTIDAVILTHAHLDHSGLLPLLFKYGYDGPVYMTPPTRDLAALLQNDYIKVARMEGGKVPYESKYIREELKHTITLRYGETTDITRDMRLTFYNAGHILGSASGHLHIGDGLYNVVLSGDVKFEKTWLFNPANNKFPRAETFMTESTYGGRDDYSFTREEATQTLIDVINRTHDRGGSVLIPVFAVGRSQEVMIVLEDAMRNGRIPQMDVYLDGMIMEAPAIHAAYPEYLNKELREAIMVKKENPFLSPIFKKVETRDRGRK” is “failed”; for “TEDNIVELDGREWIMTRRQKTRVATNIILLDIPKRIIEKYAPVRKNGHLLPILSNQKMNAYLKEIADLCNIRKPLSFHMARYREFYKHQIINRLYCMSIKGGNEKETSELLYSTLFCHFKEPLFVDCKDSDFFNNMIAIEEL” it is “failed”; for “MGISTNHTTFDGLSFKTFLENLASLLHEKPLSTPPCNDRTLLKARDPPSVAFPHHELVKFQDCETTTVFEATSEHLDFKIFKLSSEQIKKLKERASETSNGNVRVTGFNVVTALVWRCKALSVAAEEGEETNLERESTILYAVDIRGRLNPELPPSYTGNAVLTAYAKEKCKALLEEPFGRIVEMVGEGSKRITDEYARSAIDWGELYKGFPHGEVLVSSWWKLGFAEVEYPWGKPKYSCPVVYHRKDIVLLFPDIDGDSKGVYVLAALPSKEMSKFQHWFEDTLC” it is “failed”.
Regarding “MKRFIIKSDRIGFSIWEETDLKEALELWGNSNVTKYITADGKMSIEDVKTRLKVEIEFYEKYKVQYWPIFLNETSENLGVCGLHPYNIKDSVFELGVHLREKYWGIGVAEKACNLVMRYAFENLQAKAIFVGHNPNNKASKKLIKKLGFTYTHDEFYEPTGLYHPSYLITCNEFIEVKNKLKGGKIIGKNK”, the protein production entry was “not failed”.
As to “MENRAHAFLAGLFTIGLAIFIALAVVWFNRDQTVRVPYEVVTRSTVNGLSPQAAVKYRGLDVGKVDSIRFDDRVPGQIIVRVLVDKDAPITTTTYGRLAYQGVTGLAYVQLDDRGYDGGKRAANPTRLETSDRRPARIAMEAGFLDELDKRGDQMLARIDQTLSSLSALFDDEHRQALMAAMQSFQGTMDSYNALARQAEPTMRRLPQIADNLDATLSATRRLSQSLSDPKGPLMGTLASAGNDLSSASQSMQAATNVLANETLPQLNGFAREARQAVRSFDHAVTDFNTRPQSVLFGPAPATPGPGETGFAAPQVSAAPSVAVPATARP”, the protein production result is “failed”.
Take “MLIGAIVAKDDTWLLWAIIIVWATVSLFLEQRYRWASTISGAIIALVGAMLLSNFKVIPMSAPVYDTVWDYIVPLSIPLLLFSSNILKIWKESRRLLVIFFVASIGTMIGTTVGFMILNQWIPYLNKIGAMMTGSYIGGGVNFAALSSKLETPSEMISSTVVADNSVMALYFMLLIALPSLPLIKKQFKSDYESKSTPESQQAYWEPKKIQLLDIAFSIASAVTLVAVSFKGADLIQQWMPQHNVVLTLIVSFLGDPYLLLTTLTLIVVAVWGDFFESLAGASEIGTFLIYIFFVVIGTPASFATIITTAPLLFIFVIIILVFNLGLSLIFGKIFGFKIEEILLASNATAGGPTTAAALAIGKGWTKVVGPILIIGTLGYVIGNYAGTLMYQLLTYLG”: the protein production entry is “failed”.
With “MNDLSQWSISKDSNLDSPWIEGIPGCGIPGAGSLVEHIDRQILVLQRDGRYIVGLLRSYDQYANLVLENTFERFVLNDSYCDEPLGVFIIRGENVALLGEVDGEKESQWLSHLHTVSLEDTKKTIRGKRQATKALLHSQPERVEWTFYDDAFF”, the protein production result was “not failed”.
The result for “MDEQAVSTSMKTVYIRIYTSVLYTSYTKPGNWSAVDRSAWSVSCSNVYADDDAKYGAHLAIDGEINTTWFTWGVANAGECWWNTVLDRPVTLTGFSVTKQSAYGSGYNLRSAEIKVRKEGETEWVTYPRVLTFRNFKGADPQYAAIEPPIPNVKEFRINCLTPDNYTGFAEINLYVKQLEHHHHHH” reads “not failed”; that for “MGESVRTLSYGSWPSPVDAALAAAHDGRPDDVGFVGDEVWWTAPRPTEGGRRTLVRRHADGTEEPVLPAPWNVRSRVIEYGGRPWGAATTDSGPLVVFVNFADQRLYAFTPGGGEPRPLTPLSAVGGGLRWIEPDPRPERGEVWCVLEEFTGEGPTDVRRVPVAVPLDGSAADDRGAVRELAPERHRFVTGPRLSPDGRRAAWLAWDHPRMPWDGTELIVAEVGPEGTFQAARTVAGGPEESIAQADWAPDGTLLYASDRTGWWNLYRDGRPLCPREEEFGGPLWKLGQRWFAPLDSGLIAVLHGRGAAVLGILDPETGEVVDAAGPWTEFAPALAAHGERVAAVGASPRSGYEVVELDARTGRARVIGAPHEDATDPEFYPRPRIRTFTGPGGREIHAHVYPPHHPGCRAPDGELPPYVIWAHGGPTSRSPLVLDLEIAYFTSRGIGVAEVNYGGSSGHGREYRNRLREQWGVVDVEDCAAVALALADEGTADRARLAVRGGSAGGWTSAASLATTDVYACGTISYPILDLTGWGTGETHDFESQYLESLIGPYAEVPDRYTDRSPAEHAERVTAPFLLLQGLDDVICPPVQCERFLDRMAGRGVPHAYLAFEGEGHGFRRAETMVRALEAELSLYAQVFGLTPPGVPVLELTR”, “failed”.
As for “MTRSRRGALARSSEGGPFPTADPVADRALCGWRVRSVIDLPELPLWTRDDRLPDVTIAFGRVTPVESASPGMNWHVVGEGRFRFTVASVGSYRISRGRVITIDPQAGVVASAVRQYLLGTAFGVLCHQRGLLPLHASCVAINGRAVAIAGASGAGKSSLAAALVRLGYPLLGDDVCVIDASEINAPHVLPAIPRLKLWRDVLDTFGLIVDPAARILEGIDKYQAQALADRPPPPPPQVPLPLGVVYYLDQAESPDDEGFHAIRGAERAAALAGAVYRRKMGLAMGLLPQIFTATMTVGALVPGHRLLRHGDLSGLDALARSVAARQEGRGLEHHHHHH”, the protein production entry was “failed”.
Turning to “MRQPAIAAVDLGASKVTCFIMKADGVHRDNRTLTTAGVGYVQSRGVRGGAIVNLDEAAQAIAQAVERAETVAGVSVQGVSVCTAGGQLASHRVHTQVSLGARPIGDGDLSRAIASALAQVRIPGRKPIHLLPIAWSVDGQRGIRDPRAMFGRALGLELLVVSVNENIFHTLAHCVERAHLSFEGIVAAPFASALAALEEDEMDLGAVCIDMGGGSTSVAVFNNGALCHVDSLAVGGGHVTQDIARGLQTSVVGAERIKTLHGSAIASANEDREMIEAPPRGDDPGAGPVIAPRSLLKGIIQPRVEETLELLRERLKASGAPVEPGAGIVLTGGASQLAGVREVAVRVFDRPVRLGRPRRVPHLADAASGPAFCAAAGVLHRTAFGPREAVSSKALAGGVARKRPIDPNASPMAKAAAWLRDNL”, the protein production entry is listed as “failed”.
“MERGRSDMEMINNMANCLILLSKAHQNDTKSRVFACKTCNKEFPSFQALGGHRASHRRSAALEGHAPPSPKRVKPVKHECPICGAEFAVGQALGGHMRKHRGGSGGGGGRSLAPATAPVTMKKSGGGNGKRVLCLDLNLTPLENEDLKLELGRFIF”: the protein production entry is listed as “failed”.
With “ALYNVDAGHRAVIFDRFRGVQDIVVGEGTHFLIPWVQKPIIFDCRSRPRNVPVITGSKDLQNVNITLRILFRPVASQLPRIFTSI”, the protein production entry is on record as “failed”.
On to “MLDISFGEFVLIGVVALVVLGPERLPTVARTVGALVARAQRFVANVKADMQQQANLQGLDSLRQDLQDAAHSFRGQLEAEVQQVRDAIDQNAADARALAEQAAEPFHEAERTIHGGLAPDAEAEAREAETHPAEPAPAAQADVPPRDENQLDLFDDLPPHRPPASQPSASQARE”, for which the protein production entry was “failed”.
Take “MQDLTSAAAYYHQSMMMTTAKQNQPELPEQEQLKCPRCDSPNTKFCYYNNYNLSQPRHFCKNCRRYWTKGGALRNIPVGGGTRKSNKRSGSSPSSNLKNQTVAEKPDHHGSGSEEKEERVSGQEMNPTRMLYGLPVGDPNGASFSSLLASNMQMGGLVYESGSRWLPGMDLGLGSVRRSDDTWTDLAMNRMEKN”: the protein production result is “failed”.
Take “MGHAALDAVLPDGGWPRRALTELLLPAHGIGEIALLLPTLARMTGAGSRVVLVAPPYVPYAPAWQAGGVALQQLEIVQAEPRDALWAFEQCLRSGACAAVLGWPQTGDARALRRLQVAADSGNCCAFALRDRRHAVNASPLEHHHHHH”: the protein production entry is on record as “failed”.
Turning to “MIEINIQGSSSAGNNYLLADGNSSLMLEAGLKPKDIMKQGINFSNIQGLLVTHEHGDHSKYINDILLAGRFDVWASRGTLEGLGINRRSHILKANQQQKIGDWLVKPFATIHDDKKARAREPLGFLILSPSGKKIVFATDTNYLPKTFKDVTHWLVECNHDIKLVRQSKLPKSVQDRILRTHMSIDACKKFFQSTDLTKTEEIYLIHLSDKNSDPEKFKEEIEKITNKKIIIA”, the protein production result is on record as “failed”.

The values above are taken from a protein production outcome set (Wang et al. 2014).
